Test results taken from US20250236667A1, “ANTIBODIES TO MUTANT CALRETICULIN AND USES THEREOF” (CENTRAL ADELAIDE LOCAL HEALTH NETWORK INC, priority 2021, published 2025).

Tests used:
[1] = system: healthy cord blood CD34+ cells; assay: cells; type: cell-based, human
Description: Umbilical cord blood (UCB) was collected with written consent from full-term deliveries at the Women's Health Unit, Lyell McEwin Hospital (Adelaide, South Australia) or the Department of Obstetrics and Gynecology, Medical University of Graz (Austria) with institutional review board approval (IRB approval: 31-322 ex 18/19; HREC/20/WCHN/65). Samples were processed using a Ficoll-Paque (GE Healthcare) density gradient to isolate mononuclear cells (800×g, room temperature, 30 minutes, deceleration off), followed by red cell lysis (ammonium-chloride-potassium lysing buffer) to remove remaining red blood cells. CD34 enrichment was performed by magnetic cell separation using CD34 Microbead kit (Miltenyi Biotech). Alternatively, purified CD34+ cells from cord-blood were purchased from Lonza. CD34+ cells with a purity above 90% were either cryopreserved or directly cultured in serum-free stem cell retention media (StemSpan SFEMII, Stemcell Technologies, Vancouver, BC, Canada) supplemented with human recombinant SCF, TPO, FLT3, IL-6 (all 20 ng/mL), UM729 (1.75 uM) and StemReginin 1 (SR1, 300 nM). All cytokines and SRI were purchased from PeproTech (Rocky Hill, NJ, USA) whereas UM729 was purchased from Stemcell Technologies.
For megakaryocyte differentiation assays, CD34+ cells derived from cord blood or from patient peripheral blood mononuclear fractions were plated in Megacult (MegaCult™-C Collagen and Medium with Lipids) with added IL-3 and IL-6 (10 ng/ml) in the presence or absence of 50 ng/mL TPO. Cells were plated at an initial density of 1800 cells/well and cultured for 12 days at 37° C. and 5% CO2. […] Culture media was replenished every 3 days and cells were assessed for megakaryocyte differentiation on day 12 using anti-human CD41/61 PE-Cy7 (Clone A2A9/6) and CountBright beads (Thermo Fisher) to enumerate cell numbers. […] Cells were seeded at approximately 100 cells per well and were cultured in the presence of 20 μg/mL 4D7 or control IgG antibody and scored for colony and blast forming units at 12-14 days.

[2] = system: TpoR in TF-1 TpoR CALR^del61; assay: TpoR tyrosine phosphorylation, immunoprecipitation and Western blot; type: cell-based, human; settings: 8 hours of 20 μg/mL
Description: A. Cell extracts blotted for phospho-STAT1, total STAT1, phospho-STAT3, total STAT3 and actin from TF-1 TpoR cells after incubation with 10 or 20 μg/mL 4D7 or IgG for 4 or 8 hours as indicated. B. Similar experiment using TPO-independent TF-1 TpoR CALR^del61 cells at 4 and 8 hours. C. Similar experiment shown using TPO-independent TF-1 TpoR CALR^del52 cells, 8 hours. D. Flow cytometry analysis for cell cycle distribution of TF-1 TpoR CALR^del61 cells exposed to 20 μg/mL IgG or 4D7 for 48 hours. Cells were harvested and fixed and stained with propidium iodide and their DNA contents were analysed. Results from one representative experiment shown. Percentages of cells in Sub Go, G1. S and G2/M cycle indicated. E. Western blot showing specific co-immunoprecipitation of mutant CALR^del61 cells with TpoR anti-FLAG antibody under reducing conditions detected by total and mutant specific CALR antibodies. Arrowheads represent detected CALR protein. F. Western blot showing decreased TpoR phosphorylation in a TpoR immunoprecipitated after 8 hours of 20 μg/mL 4D7 treatment compared to PBS or IgG control in TF-1 TpoR CALR^del61. […]

B1: 4D7: rat monoclonal IgG2a antibody against the mutant CALR neoepitope; VH SEQ ID NO: 5, VL SEQ ID NO: 7 (antibody, listed as Rattus rattus, V domains shown)
VH: QVQLQQSGAELAKPGSSVKISCKASGYTFTNYDMSWIKQRPGQALEWIGAINPGNGVTDYNEKFRGKATLTVDKSSSTAFMQLSSLTPEDTAVYHCAREYRDNYGYFDYWGQGVMVTVSS
VL: DIVLTQTPVSLSVTLGDQASISCRSSQSLEYSDGYTYLDWFLQKPGQSPQLLIYEVSSRFSGVPDRFIGRGSGTDFTLKISRVEPEDLGVYYCFQATHDPFTFGSGTKLEIK
effect on normal hematopoiesis [1]: no effect | TpoR tyrosine phosphorylation [2]: inhibition
